Data as given in paper PMC5859096.

Experiments:
[1] = target: His6-BldC (Streptomyces coelicolor) (UniProt A0A0M7QSG5); experiment: fluorescence polarization; conditions: FP: 25 mM Tris pH 7.5, 150 mM NaCl, 1 nM F-DNA, 25 C, footprinting: 10 mM Tris HCl pH 7.8, 150 mM NaCl, 2 mM DTT, 1 ug poly(dI-dC), 10% glycerol (none for …)
[2] = target: His6-BldC(E16R) (Streptomyces coelicolor) (UniProt A0A0M7QSG5); experiment: fluorescence polarization; conditions: FP: 25 mM Tris pH 7.5, 150 mM NaCl, 1 nM F-DNA, 25 C; footprinting: 10 mM Tris HCl pH 7.8, 150 mM NaCl, 2 mM DTT, 1 ug poly(dI-dC), 10% glycerol (none for …)
[3] = target: His6-SeMet BldC(L43M-L58M) (Streptomyces coelicolor) (UniProt A0A0M7QSG5); experiment: fluorescence polarization; conditions: FP: 25 mM Tris pH 7.5, 150 mM NaCl, 1 nM F-DNA, 25 C; footprinting: 10 mM Tris HCl pH 7.8, 150 mM NaCl, 2 mM DTT, 1 ug poly(dI-dC), 10% glycerol (none for …)
[4] = target: Tag-free BldC (Streptomyces coelicolor) (UniProt A0A0M7QSG5); experiment: fluorescence polarization; conditions: FP: 25 mM Tris pH 7.5, 150 mM NaCl, 1 nM F-DNA, 25 C; footprinting: 10 mM Tris HCl pH 7.8, 150 mM NaCl, 2 mM DTT, 1 ug poly(dI-dC), 10% glycerol (none for …)
[5] = tested on: T1, His6-BldC (Streptomyces coelicolor), ORF:188ed25c; experiment: EMSA; conditions: FP: 25 mM Tris pH 7.5, 150 mM NaCl, 1 nM F-DNA, 25 C; footprinting: 10 mM Tris HCl pH 7.8, 150 mM NaCl, 2 mM DTT, 1 ug poly(dI-dC), 10% glycerol (none for …)
T1 sequence: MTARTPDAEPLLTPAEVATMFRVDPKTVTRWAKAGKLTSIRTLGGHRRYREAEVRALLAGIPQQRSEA

[6] = tested on: T1, His6-BldC (Streptomyces coelicolor), ORF:188ed25c; experiment: DNase I footprinting; conditions: FP: 25 mM Tris pH 7.5, 150 mM NaCl, 1 nM F-DNA, 25 C; footprinting: 10 mM Tris HCl pH 7.8, 150 mM NaCl, 2 mM DTT, 1 ug poly(dI-dC), 10% glycerol (none for …)
[7] = tested on: T1, His6-BldC (Streptomyces coelicolor), ORF:188ed25c; experiment: hydroxyl radical footprinting; conditions: FP: 25 mM Tris pH 7.5, 150 mM NaCl, 1 nM F-DNA, 25 C; footprinting: 10 mM Tris HCl pH 7.8, 150 mM NaCl, 2 mM DTT, 1 ug poly(dI-dC), 10% glycerol (none for …)
[8] = stoichiometry 4:1, WT BldC, tag status not stated

## TAATTCGGTCGAATTTCCCCCATTTGCACCTTTTATCGTA (double strand) [smeA-ssfA site]
[1]; [8]
  Kd: 60 nM

## TTCAATTCGGACAATTCGGACA / AATGTCCGAATTGTCCGAATTG [whiI opt 22mer (FP)]
[1]
  Kd: 18.2 nM
[1]; stoichiometry 2:1 (Fig. 5a)
  Kd: 20 nM
[2]
  Kd: 140 nM
[3]
  Kd: 19.6 nM
[4]
  Kd: 16.5 nM

## CGAGAGGATCATGTGAGTTCTCCTGGTTCACGGGGACAGTCACCATGAGTACTTCCAGGCTCACAGCATGTATCCATACGATAAAAGGTGCAAATGGGGGAAATTCGACCGAATTACCTCAGGTGGCGGAGCGCTCCTTGGGCCGCTCGGGTGTGCCGCGAGCCAGTACCCTGGCGGTTCAC (double strand) [smeA-sffA promoter PCR probe]
[5]
  binding: binds
[6]
  binding: binds
[7]
  binding: binds

## TTCAATTCGTACAATTCGTACA / AATGTACGAATTGTACGAATTG [whiI opt bp 8 and 17 to T]
[1]
  Kd: 50 nM

## GAGAACGGACACCAGGCCTCCTGGGGTGCGGGGACGGGGCCGGCTCATGGGGTTTAAGCCGGGACGAACCGTGCTTTCAAGGTCACAGTCGTCTTCGGCACCGAACGCGTCCGCCTTTAGAGAATGATCACGATCTGGTGAGTAACAATCCGAGCAATTCGGACACACTGTCGATCATTCGAAGATCGAACGGTTCCGCACTTTGTCGATACGAGGCCGAAAGTGGCCGTGTCGACAAAGTGACGGAACCTCCTCCGGACGTGCGGACCCCCTGCCCGGAACGATGAACGACGGCTGG (double strand) [whiI promoter PCR probe]
[6]
  binding: binds

## TTCAATTCGCACAATTCGCACA / AATGTGCGAATTGTGCGAATTG [whiI opt bp 8 and 17 to C]
[1]
  Kd: 115 nM

## ATTCGGACAATTCGGACAATTCGGACAATTCGGACA (double strand) [36mer opt]
[1]; [8]
  Kd: 20 nM
